# Experimental data reported in patent US20240400685A1.
# Experiments:
# [1] = target: human CD3 epsilon (human) (UniProt P07766); assay: cell-based or functional assay
# [2] = target: human CD20 (human) (UniProt P11836); assay: cell-based or functional assay
# Sequence of human CD20 (human) (P11836 whole entry): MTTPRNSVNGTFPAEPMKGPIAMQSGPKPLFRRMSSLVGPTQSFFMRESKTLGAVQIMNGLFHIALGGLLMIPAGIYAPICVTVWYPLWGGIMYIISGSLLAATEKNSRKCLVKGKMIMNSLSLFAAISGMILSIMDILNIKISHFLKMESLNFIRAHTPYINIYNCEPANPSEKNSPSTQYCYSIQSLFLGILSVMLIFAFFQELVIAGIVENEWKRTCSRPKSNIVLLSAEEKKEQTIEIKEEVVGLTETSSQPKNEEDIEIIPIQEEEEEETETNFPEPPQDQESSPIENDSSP
# Sequence of human CD3 epsilon (human) (P07766 23-207): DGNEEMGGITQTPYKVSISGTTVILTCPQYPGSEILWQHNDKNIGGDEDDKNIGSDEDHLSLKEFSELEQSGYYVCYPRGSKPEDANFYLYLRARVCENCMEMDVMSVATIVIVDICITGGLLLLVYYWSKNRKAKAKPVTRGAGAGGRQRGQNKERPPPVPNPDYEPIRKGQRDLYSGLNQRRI
substance,measurement,setting,value
epcoritamab LMWS fraction (Fc+Fab fragment),"biological activity, T-cell activation assay",[1],40%
same,"biological activity, T-cell activation assay",[2],40%
